The values below come from paper PMC6631321 (Science signaling, 2019).

Changes are numbered by the printed parent chain. Names and notes keep the numbering of the source. Values joined by “and” are separate entries in the source; they are usually repeats but may differ in a detail not shown here. Equal entries are not always repeated. Where only a bound is given, the exact number is not on record here.

The target in assay [1] is the remaining proteins (α-actinin, afadin, band 4.1B, Scrib, and ZO-1). Briefly: co-IP.
The target of assay [2] is T1, RFP-Lats1 (UniProt O95835 1-1130).
T1 sequence (looked up): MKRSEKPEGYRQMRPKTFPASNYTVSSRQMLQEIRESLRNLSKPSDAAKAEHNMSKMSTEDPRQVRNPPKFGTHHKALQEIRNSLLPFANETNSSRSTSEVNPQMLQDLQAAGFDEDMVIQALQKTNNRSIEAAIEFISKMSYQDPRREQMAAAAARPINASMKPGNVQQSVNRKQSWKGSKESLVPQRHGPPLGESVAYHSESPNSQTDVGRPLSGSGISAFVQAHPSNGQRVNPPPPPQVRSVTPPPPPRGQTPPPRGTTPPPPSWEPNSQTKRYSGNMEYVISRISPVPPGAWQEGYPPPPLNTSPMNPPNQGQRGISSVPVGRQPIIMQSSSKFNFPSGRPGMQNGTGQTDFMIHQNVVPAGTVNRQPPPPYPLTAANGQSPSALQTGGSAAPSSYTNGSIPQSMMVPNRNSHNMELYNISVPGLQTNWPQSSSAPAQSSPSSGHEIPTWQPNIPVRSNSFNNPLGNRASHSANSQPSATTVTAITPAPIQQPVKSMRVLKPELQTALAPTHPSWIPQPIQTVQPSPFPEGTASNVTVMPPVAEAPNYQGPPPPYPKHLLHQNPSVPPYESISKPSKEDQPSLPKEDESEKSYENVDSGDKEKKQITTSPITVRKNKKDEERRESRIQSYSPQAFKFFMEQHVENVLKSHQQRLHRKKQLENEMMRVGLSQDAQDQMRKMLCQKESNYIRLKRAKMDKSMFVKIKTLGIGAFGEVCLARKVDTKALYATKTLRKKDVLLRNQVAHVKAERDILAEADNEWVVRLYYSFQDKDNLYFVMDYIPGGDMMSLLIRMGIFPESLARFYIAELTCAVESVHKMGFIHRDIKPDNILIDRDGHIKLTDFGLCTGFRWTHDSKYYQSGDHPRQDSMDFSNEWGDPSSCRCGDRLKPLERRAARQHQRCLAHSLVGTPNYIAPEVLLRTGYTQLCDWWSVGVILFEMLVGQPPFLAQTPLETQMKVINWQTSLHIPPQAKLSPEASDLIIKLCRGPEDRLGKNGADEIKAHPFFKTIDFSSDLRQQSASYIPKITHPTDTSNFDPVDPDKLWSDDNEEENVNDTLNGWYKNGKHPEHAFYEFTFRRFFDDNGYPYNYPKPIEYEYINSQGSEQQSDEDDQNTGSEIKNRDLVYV
The assay is described as follows: pull-down.

Assay [3] addresses T2, RFP-ASPP2 (UniProt Q13625 1-1128).
T2 sequence (looked up): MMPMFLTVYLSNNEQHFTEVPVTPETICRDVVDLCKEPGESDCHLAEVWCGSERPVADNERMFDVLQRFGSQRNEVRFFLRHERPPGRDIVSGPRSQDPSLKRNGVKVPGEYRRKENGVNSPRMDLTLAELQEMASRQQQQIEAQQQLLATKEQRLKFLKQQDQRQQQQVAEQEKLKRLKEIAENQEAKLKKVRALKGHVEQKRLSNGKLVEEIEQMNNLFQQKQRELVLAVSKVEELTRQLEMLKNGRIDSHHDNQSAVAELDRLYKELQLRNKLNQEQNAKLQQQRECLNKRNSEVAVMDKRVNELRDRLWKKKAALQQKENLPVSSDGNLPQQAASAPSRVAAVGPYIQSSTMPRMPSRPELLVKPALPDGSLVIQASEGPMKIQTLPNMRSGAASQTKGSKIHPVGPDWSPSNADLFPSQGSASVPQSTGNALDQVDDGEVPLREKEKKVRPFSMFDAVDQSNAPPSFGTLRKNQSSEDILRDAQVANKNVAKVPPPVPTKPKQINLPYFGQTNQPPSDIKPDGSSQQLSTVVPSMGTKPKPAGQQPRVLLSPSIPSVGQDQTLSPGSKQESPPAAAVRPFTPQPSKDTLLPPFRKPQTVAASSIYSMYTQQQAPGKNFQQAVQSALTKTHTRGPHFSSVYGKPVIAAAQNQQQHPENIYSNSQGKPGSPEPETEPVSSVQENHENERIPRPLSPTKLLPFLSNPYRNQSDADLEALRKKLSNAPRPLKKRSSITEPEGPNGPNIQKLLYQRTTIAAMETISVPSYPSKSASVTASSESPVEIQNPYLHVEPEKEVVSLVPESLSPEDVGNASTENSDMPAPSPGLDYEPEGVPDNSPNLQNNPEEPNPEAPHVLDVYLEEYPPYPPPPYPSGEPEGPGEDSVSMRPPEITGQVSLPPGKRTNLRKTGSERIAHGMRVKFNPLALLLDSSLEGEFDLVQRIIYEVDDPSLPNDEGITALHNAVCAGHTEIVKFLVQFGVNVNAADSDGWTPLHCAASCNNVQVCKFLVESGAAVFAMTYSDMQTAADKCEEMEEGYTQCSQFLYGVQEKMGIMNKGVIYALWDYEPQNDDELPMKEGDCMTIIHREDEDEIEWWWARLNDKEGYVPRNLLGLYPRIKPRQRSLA
The assay is described as follows: pull-down.

Assay [4] deals with T1, RFP-Lats1. Briefly: co-IP.
The target in assay [5] is RFP-Angiomotin, Q4VCS5. The assay is described as follows: co-IP. The note with it: remark: other sources report otherwise.
The target in assay [6] is RFP-Angiomotin, Q4VCS5. Briefly: pull-down. Conditions: remark: other sources report otherwise.
The target of assay [7] is T2, RFP-ASPP2. The assay is described as follows: pull-down. This is another data set of the same source.

Chain of RFP-Angiomotin, Q4VCS5 (Q4VCS5 whole entry): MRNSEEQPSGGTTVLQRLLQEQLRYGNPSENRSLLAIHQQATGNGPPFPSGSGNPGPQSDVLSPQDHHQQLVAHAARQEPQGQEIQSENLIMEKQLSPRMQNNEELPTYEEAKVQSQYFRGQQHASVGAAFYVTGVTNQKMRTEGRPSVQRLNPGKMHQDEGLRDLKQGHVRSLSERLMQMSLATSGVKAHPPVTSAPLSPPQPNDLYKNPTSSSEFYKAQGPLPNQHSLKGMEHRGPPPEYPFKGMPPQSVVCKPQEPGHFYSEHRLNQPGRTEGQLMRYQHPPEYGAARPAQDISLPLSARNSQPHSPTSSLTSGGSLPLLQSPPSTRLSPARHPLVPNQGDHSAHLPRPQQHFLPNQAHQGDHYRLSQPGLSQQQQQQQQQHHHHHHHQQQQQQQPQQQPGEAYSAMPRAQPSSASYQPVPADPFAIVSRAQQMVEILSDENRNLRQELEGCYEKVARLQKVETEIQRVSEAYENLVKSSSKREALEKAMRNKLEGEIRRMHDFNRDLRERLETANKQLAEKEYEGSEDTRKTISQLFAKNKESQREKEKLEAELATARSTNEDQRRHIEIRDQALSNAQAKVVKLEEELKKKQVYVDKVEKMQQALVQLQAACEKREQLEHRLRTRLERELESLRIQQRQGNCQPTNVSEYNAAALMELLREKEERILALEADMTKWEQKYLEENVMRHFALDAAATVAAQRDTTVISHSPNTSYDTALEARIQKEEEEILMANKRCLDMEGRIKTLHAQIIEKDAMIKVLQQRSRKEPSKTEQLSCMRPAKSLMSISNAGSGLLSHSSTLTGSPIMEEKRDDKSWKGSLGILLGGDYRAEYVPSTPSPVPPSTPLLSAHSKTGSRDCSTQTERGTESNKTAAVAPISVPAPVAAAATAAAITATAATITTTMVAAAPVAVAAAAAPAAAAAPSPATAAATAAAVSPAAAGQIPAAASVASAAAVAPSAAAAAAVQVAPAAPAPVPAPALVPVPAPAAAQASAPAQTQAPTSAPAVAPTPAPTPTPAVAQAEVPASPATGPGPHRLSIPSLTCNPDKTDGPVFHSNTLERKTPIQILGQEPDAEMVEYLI

On to “Merlin-NLuc (from UniProt P35240 1-595) (natural protein)”, for which the fold over the negative control (RFP alone), co-precipitated luciferase in assay [1] is 2 fold and 5 fold.

B1: Merlin-NLuc (natural protein, UniProt P35240 1-595, looked up)
chain: MAGAIASRMSFSSLKRKQPKTFTVRIVTMDAEMEFNCEMKWKGKDLFDLVCRTLGLRETWFFGLQYTIKDTVAWLKMDKKVLDHDVSKEEPVTFHFLAKFYPENAEEELVQEITQHLFFLQVKKQILDEKIYCPPEASVLLASYAVQAKYGDYDPSVHKRGFLAQEELLPKRVINLYQMTPEMWEERITAWYAEHRGRARDEAEMEYLKIAQDLEMYGVNYFAIRNKKGTELLLGVDALGLHIYDPENRLTPKISFPWNEIRNISYSDKEFTIKPLDKKIDVFKFNSSKLRVNKLILQLCIGNHDLFMRRRKADSLEVQQMKAQAREEKARKQMERQRLAREKQMREEAERTRDELERRLLQMKEEATMANEALMRSEETADLLAEKAQITEEEAKLLAQKAAEAEQEMQRIKATAIRTEEEKRLMEQKVLEAEVLALKMAEESERRAKEADQLKQDLQEAREAERRAKQKLLEIATKPTYPPMNPIPAPLPPDIPSFNLIGDSLSFDFKDTDMKRLSMEIEKEKVEYMEKSKHLQEQLNELKTEIEALKLKERETALDILHNENSDRGGSSKHNTIKKLTLQSAKSRVAFFEEL
Consider B1, for which the figures for the “fold over the negative control (RFP alone), bound luciferase” value in assay [2], in assay [3] and in assay [6] were 268 fold, 125 fold and 2300 fold, respectively. In addition, the “fold over the negative control (RFP alone), co-precipitated luciferase” value was > 20 fold in assay [4] and 100 fold in assay [5].

B2: Merlin S518D (natural protein, UniProt P35240 1-595, looked up)
chain: B1 chain with S518D
For the molecule B2, the “fold less than binding to wild-type Merlin” value in assay [7] was > 2 fold.

B3: Merlin S518A (natural protein, UniProt P35240 1-595, looked up)
chain: B1 chain with S518A
Consider B3, for which the “fold greater than binding to wild-type Merlin” value in assay [7] is ~2 fold.
